Laboratory results: patent publication US20240002536A1 (GENERAL HOSPITAL, published 2024)
Primed or numbered codes have the meaning given here. Ends that are not written are not given here. * marks the point of attachment. Biotin = O=C1N[C@H]2[C@H](CS[C@H]2CCCCC(=O)*)N1; DBCO′ = dibenzocyclooctyne

Assays:
db1 [1] = target: T1, db1; assay: phage ELISA, scFv displayed on M13
T1 construct: Unclicked precursor of Az3db1; also called DBCO-ARPDGG; db1 half-peptide
T1 peptide: {DBCO′}-ARPDGG

Az3 [2] = target: T2, Az3; assay: phage ELISA, scFv displayed on M13
T2 construct: Unclicked precursor of Az3db1; also called azide-peptide Az3; single half-peptide
T2 peptide: Biotin-SGGGERTHK(azide)

Az3 [3] = target: T2, Az3; assay: competition ELISA: ratio of response slopes on immobilised Az3db1 without competitor / with soluble Az3
Method: (§1) We ranked the five scFv proteins 1S-5S in terms of their desired specificities and binding affinities. For this purpose, a series of ELISA-based competition assays were established, where scFvs were preincubated in solution with designated competitors before testing against immobilized target Az3db1 peptide. These included Az3db1 itself, and its constituent peptides Az3 and db1, in large (×100-fold) molar excess over the scFv proteins.
(§2) All ELISA assays used biotinylated target peptides for immobilized on streptavidin (SA) plates. For testing responses against Az3db1 (FIG. 3), a stock of the click product between peptides Az3 and db1 was made by incubating both together at 4.5 mM concentration in PBS pH 7.4 for 16 hr, conditions resulting in ≥70% conversion to the click product (FIG. 4). The resulting Az3db1 was positioned in an SA plate by incubating appropriate wells (after initial plate washing) with 100 μl of 1 pmol/μl of peptide. Dilutions of scFvs or IgG1-51 were made in PBS with 10 mg/ml bovine serum albumin (BSA) to levels typically beginning at 50 pg/μl, then in extended 2-fold dilution series from that point. Antibody or scFv dilutions were then incubated with Az3db1 target for 1 hr/room temperature, followed by treatment with appropriate secondary antibody-HRP conjugates (anti-human kappa for IgG1-51, anti-6H hexahistidine for all scFvs). After extensive washing, signals based on HRP activity from standard chromogenic substrates were read in a plate reader and collated.

db1 [4] = target: T1, db1; assay: competition ELISA: ratio of response slopes on immobilised Az3db1 without competitor / with soluble Db1
Method: as §1
as §2, with “Antibody or scFv dilutions were then incubated with Az3db1 target for 1 hr/room temperature, followed by treatment with appropriate secondary antibody-HRP conjugates (anti-human kappa for IgG1-51, anti-6H hexahistidine for all scFvs).” left out

Az3db1 [5] = target: T3, Az3db1 (also: triazole at chain A 9 to a chain's N-terminus); assay: competition ELISA after Friguet, plot of Ao/(Ao-A) against 1/a0 with soluble Az3Db1 competitor; one single determination
T3 construct: Two synthetic peptides joined through the azide-DBCO click product; conversion to the click product was >=70%; also called click product of peptides Az3 and db1; original selection peptide
T3 peptide 1: Biotin-SGGGERTHK(azide)
T3 peptide 2: {DBCO′}-ARPDGG
Method: The binding affinity of IgG1-51 antibody towards Az3db1 was measured in an ELISA-based format by the method of Friguet et al. (1985), to yield the dissociation constant (KD) from a specific data plot. Because the total concentration of free competitor in these studies is large compared to the concentration of antibody (antibody concentration ˜0.1 nm), the simplification of the Scatchard-Klotz equation as derived by Friguet et al. was used, as: […]

[6] = target: (glycan chain)--(N-acetylmannosamine)-<azide-DBCO>-ARPDGG; assay: flow cytometry on Jurkat cells pre-incubated with AzNAM and treated with Db1 peptide; DMSO-control cells treated with Db1 printed as 'Geo. Mean = 1.4'
Az3db1 [7] = target: T3, Az3db1; assay: ELISA-based competition in solution by the method of Friguet et al.; average of four independent determinations

B1: scFv-83 (scFv)
scFv: QVQLVQSGAEVKKPGASVKVSCKASGYSFTSYAMNWVRQAPGQGLEWMGWINTNTGNPMYAQGFTGRFVFSLDTSVSTAYLEVSSLKAEDTAVYFCARYNAMDVWGQGTTVTVSSGGGGSGGGGSGGGGSQAVLTQPSSLSASPGASASLTCTLRSGINVGTYRIYWYQQKPGSPPQYLLRYKSDSDKQQGSGVPSRFSGSKDASANAGILLISGLQSEDEADYYCMIWHSSAWVFGGGTKVTVLG
notes: VH-(GGGGS)3 linker-VL from the human phage library HuScL-6; expression as a protein failed
Question: Does B1 bind (db1 [1])?
Answer: no binding

Question: Does B1 bind (Az3 [2])?
Answer: no binding

B2: scFv-18 (scFv)
scFv: QVQLVESGSELKKPGASVKVSCKASGYTFTNYAMNWVRQAPGQGLEWLGWINTNTGNPTYAQGFTGRFVFSLDTSVSTAYLQISSLKAEDTAVYYCARGSLGGTFDYWGQGTPVTVSSGGGGSGGGGSGGGGSQAVLTQPSSLSASPGASASLTCTLRSGINVGTYRIYWYQQKPGSPPQYLLRYKSDSDKHQDSGVPSRFSGSTDASANAGILLISGLQSEDEADYYCMIWHSRAWVFGGGTRGEIKR
notes: VH-(GGGGS)3 linker-VL from the human phage library HuScL-6; Protein ELISAs used an E. coli hexahistidine (6H) fusion; also called scFv-1S; 1S
Question: Which results are given for B2?
Answer: binding result (Az3 [3]): no binding; binding result (db1 [4]): no binding

B3: scFv-36 (scFv)
scFv: QVQLVQSGAEVKKPGASVKVSCKASGYTFTSYGISWVRQAPGQGLEWMGWINTNTGNPTYAQGFTGRSVFSLDTSVSTAYLQISSLKAEDSAVYYCARHSDDGAFDIWGKGTMVTVSSGGGGSGGGGSGGGGSQAVLTQPSSLSASPGASASLTCTLRSGINVGTYRIYWYQQKPGSPPQYLLRYKSDSDKQQGSGVPSRFSGSKDASANAGTLLISGLQSEDEADYYCAIWHSSTWVFGGGTKVTVLG
notes: VH-(GGGGS)3 linker-VL from the human phage library HuScL-6; Protein ELISAs used an E. coli hexahistidine (6H) fusion; also called scFv-2S; 2S
Question: Does B3 bind (Az3 [3])?
Answer: no binding

B4: IgG1-51 (antibody, V domains shown)
VH: QMQLVQSGSELKKPGASVKVSCKASGYTFTSYAMNWVRQAPGQGLEWMGWINTNTGNPTYAQGFTGRFVFSLDTSVSTAYLQISSLKAEDTAVYYCARFDRPRGAFDIWGQGTLVTVSS
VL: QAVLTQPSSLSASPGASASLTCTLRSGINVGTYRIYWYQQKPGSPPQYLLRYKSDSDKQQGSGVPSRFSGSKDASANAGILLISGLQSEDEADYYCMIWHSSAWVFGGGTKLTVLG
notes: VH and VL of scFv-51 fused in frame to human Cgamma1 and Ckappa and co-expressed in Hek293 cells; also called Ab51; antibody 51; not shown: Human Gamma1 C-region, Uniprot code P01857.1; Human Kappa C-region, Uniprot code P01834.2
Question: With B4 as the binder, how does the Kd (Az3db1 [5]) read?
Answer: 175 nM

Question: What about the geometric mean fluorescence (Geo. Mean) [6] of the same binder?
Answer: 226

Question: What about the Kd (Az3db1 [7]) of the same binder?
Answer: 160 nM

B5: scFv-69 (scFv)
scFv: QVQLVQSGSELKKPGASVKVSCKASGYTFTSYAMNWVRQAPGQGLEWMGWINTNTGNPTYAQGFTGRFVFSLDTSVSTAYLQISSLKAEDTAVYYCARGAAGVFDIWGKGTTVTVSSGGGGSGGGGSGGGGSQAVLTQPSSLSASPGASASLTCTLRSGINVGTYNIYWYQQKPGSPPQFLLRYKSDSDKQQVSGVPSRFSGSKDGSANAGILLISGLQSEDEADYYCMIWHSSAWVFGGGTKLTVLG
notes: VH-(GGGGS)3 linker-VL from the human phage library HuScL-6; It was also expressed as an E. coli hexahistidine (6H) fusion
Question: Does B5 bind (db1 [1])?
Answer: no binding

Question: Does B5 bind (Az3 [2])?
Answer: no binding

B6: scFv-64 (scFv)
scFv: EVQLVESGSELKKPGASVKVSCKASGYTFTSYAINWVRQAPGQGLEWMGWINTNTGNPTYAQGFTGRFVFSLDTSVSTAYLQISSLKAEDTAVYYCARGYYDSSGYNFDYWGKGTLVTVSSGGGGSGGGGSGGGGSQAVLTQPSSLSASPGASASLTCTLRSGINVGTYRIYWYQQKPGSPPQYLLRYKSDSDKQQGSGVPSRFSGSKDASANAGILLISGLQSEDEADYYCMIWHSSAWVFGGGTKLTVLG
notes: as for B5
Question: Which results are given for B6?
Answer: binding result (db1 [1]): no binding; binding result (Az3 [2]): no binding

B7: scFv-44 (scFv)
scFv: QVQLVQSGAEVKKPGSSVKVSCKASGYTFADYAINWVRQAPGQGLEWMGWINTNTGNPTYAQGFTGRFVFSLDTSVSTAYLQISSLEAEDTAVYYCARHFSGYSLDAVDIWGQGTLVTVSSGGGGSGGGGSGGGGSQAVLTQPSSLSASPGTSASLTCTLRSDINVGAYRIYWYKHKAGSPPQFLLRFKSDSDNYRGSGVPGRFSGSKDASANAGILLISGLQSEDEADYYCAIWHSSTWVFGGGTKLTVLG
notes: VH-(GGGGS)3 linker-VL from the human phage library HuScL-6; Protein ELISAs used an E. coli hexahistidine (6H) fusion; also called scFv-3S; 3S
Question: Which results are given for B7?
Answer: binding result (Az3 [3]): no binding; binding result (db1 [4]): no binding

B8: scFv-72 (scFv)
scFv: EVQLVESGAEVKKPGASVKVSCKASGYTFTSYAMNWVRQAPGQGLEWMGWINTNTGNPTYAQGFTGRFVFSLDTSVSTAYLQISSLKAEDTAVYYCARQRDYRMDVWGQGTMVTVSSGGGGSGGGGSGGGGSQAVLTQPSSLSASPGASASLTCTLRSGINVGTYRIYWYQQKPGSPPQYLLRYKSDSDKQQASGVPSRFSGSKDASANAGILLISGLQSEDEADYYCLIWHNNAWVFGGGTKVTVLG
notes: as for B1
Question: Which results are given for B8?
Answer: binding result (db1 [1]): no binding; binding result (Az3 [2]): no binding
